Data from publication PMC3223204, “Implantation Serine Proteinase 1 Exhibits Mixed Substrate Specificity that Silences Signaling via Proteinase-Activated Receptors” (PLoS ONE, 2011).
Entries after “also recorded” stand apart in the source; their conditions may differ.

Columns and labels:
[1] = target: T1, human PAR1 (Homo sapiens, UniProt P25116, INS26FLNCCPGCCMEPA); assay: Release of N-terminal BAB motif from PAR1 on COS-1 cells; assay type: cell-based; settings: 0.1 and 0.5 units per ml, 37°C, 30 minutes
T1 construct: expressed in transfected cells; host or cells: COS-1
T1 sequence (P25116 with tags, fused parts or gaps limits assumed): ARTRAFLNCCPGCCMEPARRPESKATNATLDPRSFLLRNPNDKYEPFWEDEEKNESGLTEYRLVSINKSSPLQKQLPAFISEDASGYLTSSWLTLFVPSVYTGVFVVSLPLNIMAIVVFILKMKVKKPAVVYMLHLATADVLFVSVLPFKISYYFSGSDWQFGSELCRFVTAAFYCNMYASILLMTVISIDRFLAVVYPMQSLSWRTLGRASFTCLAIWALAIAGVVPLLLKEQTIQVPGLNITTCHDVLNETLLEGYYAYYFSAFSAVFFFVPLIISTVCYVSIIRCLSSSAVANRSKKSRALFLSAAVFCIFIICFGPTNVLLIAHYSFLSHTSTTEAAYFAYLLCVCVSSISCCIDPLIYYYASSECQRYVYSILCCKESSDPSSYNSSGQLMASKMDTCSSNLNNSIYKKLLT
Excerpt: (§1) The biarsenical fluorochrome binding domain (BAB), containing a tetra-cysteine motif, […] for PAR1, […] for PAR2 and […] for PAR4 was inserted into the receptor N-terminal domains by introducing corresponding oligonucleotides just downstream of the signal peptide of PARs, after A26 for human PAR1, Q27 for human PAR2 and V25 for human PAR4. The PAR DNA constructs containing the N-terminal BAB domain and a YFP C-terminal fluorochrome tag were cloned in pCDNA3.1+ at the restriction enzyme sites between Eco RI and Xba I. COS-1 cells obtained from ATCC (Manassas, VA USA) were transected with the PAR constructs with the FuGENE6 transfection reagent (Roche Applied Bioscience). The expression level of the expressed receptor was quantified using a fluorescence plate reader, (Victor 4X, Perkin-Elmer), and confocal microscopy was used to monitor the receptor location by visualizing the receptor YFP tag. […] Then, the peptide(s) containing the receptor BAB tetracysteine motif released by proteinases from the receptor N-terminus into the cell culture supernatant was quantified using a Victor X4 fluorescent plate reader with an excitation wavelength of 540 nm and an emission wavelength monitored at 615 nm. […]

[2] = target: T2, human PAR2 (Homo sapiens, UniProt P55085); assay: Release of N-terminal BAB motif from PAR2 on COS-1 cells; assay type: cell-based; settings: 0.1 and 0.5 units per ml, 37°C, 30 minutes
T2 construct: expressed in transfected cells; host or cells: COS-1
T2 sequence (P55085 with tags, fused parts or gaps limits assumed): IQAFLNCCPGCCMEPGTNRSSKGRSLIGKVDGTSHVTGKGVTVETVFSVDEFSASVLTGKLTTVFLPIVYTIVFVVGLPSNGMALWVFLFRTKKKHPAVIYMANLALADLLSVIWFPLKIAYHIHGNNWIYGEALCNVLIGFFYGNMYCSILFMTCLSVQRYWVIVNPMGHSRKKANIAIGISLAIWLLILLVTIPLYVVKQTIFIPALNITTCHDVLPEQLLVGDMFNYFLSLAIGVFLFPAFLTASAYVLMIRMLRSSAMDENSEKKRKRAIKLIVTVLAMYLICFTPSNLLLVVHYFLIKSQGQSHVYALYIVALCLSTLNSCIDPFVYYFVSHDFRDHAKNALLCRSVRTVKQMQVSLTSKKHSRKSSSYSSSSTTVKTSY
Excerpt: as §1

[3] = target: T3, human PAR4 (Homo sapiens, UniProt Q96RI0, INS25FLNCCPGCCMEP); assay: Release of N-terminal BAB motif from PAR4 on COS-1 cells; assay type: cell-based; settings: 0.1 and 0.5 units per ml, 37°C, 30 minutes
T3 construct: expressed in transfected cells; host or cells: COS-1
T3 sequence (Q96RI0 with tags, fused parts or gaps): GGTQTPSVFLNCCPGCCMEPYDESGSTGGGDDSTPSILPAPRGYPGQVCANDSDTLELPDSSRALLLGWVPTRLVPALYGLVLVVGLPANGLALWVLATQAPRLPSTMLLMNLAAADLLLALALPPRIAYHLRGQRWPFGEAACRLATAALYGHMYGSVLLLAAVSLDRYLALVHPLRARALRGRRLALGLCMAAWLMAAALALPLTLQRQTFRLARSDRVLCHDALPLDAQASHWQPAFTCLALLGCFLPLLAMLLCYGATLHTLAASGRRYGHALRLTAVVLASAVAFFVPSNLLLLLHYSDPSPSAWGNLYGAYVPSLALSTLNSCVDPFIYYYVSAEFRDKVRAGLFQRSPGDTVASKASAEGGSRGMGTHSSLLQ
Excerpt: as §1

[4] = tested on: rat PAR2-expressing KNRK cells; assay: P44/42 ERK/MAP kinase activation in rat PAR2-expressing KNRK cells; assay type: cell-based; settings: ISP1 for 10 min
Method: Western blot detection of P44/42 ERK was performed essentially as described. In brief, KNRK cells that had been transfected with the PAR2 expressing construct (PAR2 -KNRK) or empty vector (pcDNA3-KNRK) were serum starved and stimulated with ISP1 for 10 min. Cells were placed on ice and agonists were removed prior to lysis with cold lysis buffer (Roche). Protein samples were boiled for 10 min in Laemelis buffer and resolved on SDS-PAGE gels. Activation of MAP Kinase was monitored by immunoblotting with phospho-specific ERK antibodies (Cell signaling) and relative increases in ERK phosphorylation was quantified relative to total ERK signal detected in the same samples. As a positive control cells were activated with SLIGRL-NH2 that causes a PAR2-mediated increase in MAPkinase phosphorylation.

[5] = target: T4, trypsin (Sus scrofa, UniProt P00761); assay: Effect of ISP1 on enzyme activity of trypsin; assay type: biochemical; settings: data not shown
T4 construct: Porcine trypsin (cat. number T-3030; 14,500 units/mg); purchased Sigma-Aldrich T-3030 (printed as T0303); host or cells: porcine pancreas
T4 sequence (P00761 9-231): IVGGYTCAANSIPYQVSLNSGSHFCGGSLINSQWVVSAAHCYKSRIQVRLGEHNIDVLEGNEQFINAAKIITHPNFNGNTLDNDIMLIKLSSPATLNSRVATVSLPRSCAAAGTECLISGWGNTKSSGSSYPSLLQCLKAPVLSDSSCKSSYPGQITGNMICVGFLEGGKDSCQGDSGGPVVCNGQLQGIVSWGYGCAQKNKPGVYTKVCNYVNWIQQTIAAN

[6] = target: T5, thrombin (Homo sapiens, UniProt P00734); assay: Effect of ISP1 on enzyme activity of thrombin; assay type: biochemical; settings: data not shown
T5 construct: High activity human thrombin (cat. number 605195, lot B37722; 3,186 NIH units/mg) was from Calbiochem; purchased Calbiochem 605195

Inhibitory effect on enzyme activity of trypsin [5]: doesn't have any inhibitory effect
Inhibitory effect on enzyme activity of thrombin [6]: doesn't have any inhibitory effect
B1: ISP1: recombinant implantation serine proteinase 1 expressed in Pichia pastoris, also known as Mouse Prss28 (protein, UniProt Q924N9 27-274, looked up)
Serine protease 28: KPVGIVGGQRTPPGKWPWQVSLRMYSYEVNSWVHICGGSIIHPQWILTAAHCIQSQDADPAVYRVQVGEVYLYKEQELLNISRIIIHPDYNDVSKRFDLALMQLTALLVTSTNVSPVSLPKDSSTFDSTDQCWLVGWGNLLQRVPLQPPYQLHEVKIPIQDNKSCKRAYRKKSSDEHKAVAIFDDMLCAGTSGRGPCFGDSGGPLVCWKSNKWIQVGVVSKGIDCSNNLPSIFSRVQSSLAWIHQHIQ
modifications: recombinant, Pichia pastoris-expressed
notes: recombinant implantation serine proteinase 1 expressed in Pichia pastoris, also known as Mouse Prss28
Release of PAR1 N-terminal BAB domain (PAR cleavage activity) [1]: significant concentration-dependent PAR cleavage activity
Release of PAR2 N-terminal BAB domain (PAR cleavage activity) [2]: significant concentration-dependent PAR cleavage activity
Release of PAR4 N-terminal BAB domain (PAR cleavage activity) [3]: significant concentration-dependent PAR cleavage activity
Phosphorylation status of ERK via MAP kinase activation [4]: No change in phosphorylation status of ERK; also recorded: No activation of ERK
